Test results published in patent publication US20160208226A1, “Transaminase Biocatalysts” (COMMONWEALTH SCIENTIFIC AND INDUSTRIAL RESEARCH ORGANISATION, priority 2013, published 2016).

Tests used:
[1] = Coupled dehydrogenase assays for transaminase activity of the Pseudomonas sp. proteins and ancestral reconstructions; type: biochemical
Experimental: Activity for each protein was assessed using coupled dehydrogenase assays as described previously. A typical assay comprised:
Substrate (6.25 mM final concentration in potassium phosphate buffer)
Co-substrate (pyruvate (0.5 mM final concentration) or α-KG (0.25 mM final concentration)
NAD (1.25 mM final concentration)
Dehydrogenase (1 μL from ADH-≧35 units/mL stock solution or GDH≧35 units/mg protein stock)
Transaminase (final concentration dependent)
Potassium phosphate buffer (100 mM)
UV absorbance at 340 nm was recorded at 28° C. over a pH range of 7.5-10 with a range of substrates.
Proteins encoded by p7N6, p7N15, p7N16, p7N17, p7N43 and p7N48 were expressed using an E. coli recombinant expression platform and subsequently purified.
Each of the proteins were assayed for substrate specificity. Substrates identified by assaying for each of the proteins are summarized below.

[2] = Large-scale (200 mL) p6 reaction analysed by GC-MS; type: biochemical; settings: C11 amino acid substrate, after seven days, oil analysed by GC-MS
Experimental: To corroborate the findings of the UV assay, a large-scale (200 mL) p6 reaction was carried out using C11 amino acid substrate. After seven days, the mixed reaction was allowed to settle and yellow oil was observed on the surface of the reaction. This oil was concentrated in vacuo and analysed by GC-MS. […] The diacid is thought to be the oxidation product of the semialdehyde formed by the transaminase, further supporting the findings of the UV assay.

pH optimum ([1]; UV absorbance at 340 nm, 28° C., pH range 7.5-10): ~10
smallest substrate accepted ([1]; coupled dehydrogenase assay): C3 (β-alanine)
B1: p6: pyruvate: ω-amino acid transaminase from a newly isolated Pseudomonas sp., amino acid sequence SEQ ID NO:1 (protein, listed as Pseudomonas sp.)
chain: MGSSHHHHHHSSGLVPRGSHMNQQVNVAPSAAADLNLKAHWMPFSANRNFHKDPRIIVAAEGSWLVDDKGRRIYDSLSGLWTCGAGHSRKEIADAVAKQIGTLDYSPGFQYGHPLSFQLAEKIAQMTPGTLDHVFFTGSGSECADTSIKMARAYWRIKGQAQKTKLIGRARGYHGVNVAGTSLGGIGGNRKMFGPLMDVDHLPHTLQPGMAFTKGAAETGGVELANELLKLIELHDASNIAAVIVEPMSGSAGVIVPPKGYLQRLREICDANDILLIFDEVITAFGRMGKATGAEYFGVTPDIMNVAKQVTNGAVPMGAVIASSEIYDTFMNQNLPEYAVEFGHGYTYSAHPVACAAGIAALDLLQKENLIQQSAELAPHFEKALHGLKGTKNVIDIRNCGLAGAIQIAARDGDAIVRPFEASMKLWKEGFYVRFGGDTLQFGPTFNAKPEDLDRLFDAVGEALNGVA
activity with ω-amino acids including long chain C11 and C12 ([1]; coupled dehydrogenase assay, 340 nm, 28° C., pH 7.5-10): shown the desired activity with ω-amino acids, notably including long chain amino acids C11 and C12
product detected by GC-MS in large-scale reaction [2]: a peak corresponding to the mass of the C11 diacid was also found in large concentrations
